Assays:
hIGF2R-ECD = target: T1, hIGF2R-ECD (Homo sapiens, UniProt P11717); assay: Competition assay with 13F11-A647 as reporter VHH on immobilized hIGF2R-ECD; assay type: binding; settings: 10 nM 13F11-A647, 250 nM unconjugated competitor VHH
T1 construct: immobilized recombinant human extracellular domain of IGF2R (hIGF2R-ECD) was used
Procedure: With the term “compete” is meant that in a competition assay, such as for instance described in Example 6 of the present invention, the addition of a binding molecule induces a significant decrease in binding of a given VHH, i.e., the VHH to which the competing is determined. “Significant” in this respect is preferably a decrease of >5%, preferably >10% when 250 nM of a binding molecule is added to 10 nM of a fluorescence labelled VHH in an ELISA. […] The same test conditions and threshold apply to a binding molecule directed to PDGFRB when determining whether a binding molecule competes with a given VHH.
(§1) Biparatopic VHH constructs contain two VHH which bind to a different epitope, i.e. which are non-competitive binders. To identify (a) pair(s) of non-competitive binders, competition assays were performed. In the example shown, an Alexa fluor-conjugate of the high affine VHH 13F11 was used as the reporter VHH (13F11-A647, see example 10.2). In the assay, a non-saturating amount (10 nM) of 13F11-A647 was incubated with immobilized hIGF2R-ECD in the presence or absence of 250 nM unconjugated competitor VHH to allow competition to take place.

[1] = test system: A549 cells that endogenously express hIGF2R; assay: Internalization by fluorescence microscopy after acid wash, A549 cells; assay type: cell-based, human; settings: 25 nM Alexa fluor 647 conjugate
Procedure: (§2) First, Alexa fluor 647-conjugates of the VHH 13F11 and the biparatopic VHH construct […] were added to A549 cells that endogenously express hIGF2R (FIG. 16A), NIH 3T3 2.2 cells that were transiently transfected with hIGF2R (FIG. 16B), or mock transfected NIH 3T3 2.2 cells (as a negative control). For this, the cells were incubated with 25 nM of the VHH or the VHH construct. Before fluorescent microscopy readout, to ensure that only signal of internalized VHH or mouse anti-IGF2R was present, an acid wash (0.2M glycine-HCl, 150 mM NaCl, pH 2.3) was used to remove VHH or mouse anti-IGF2R bound to the target receptors on the cell surface. The efficiency of the acid wash procedure was verified by incubating the hIGF2R transfected NIH 3T3 2.2 cells with 13F11-13E8-A647 on ice and subsequently treating these cells with an acid wash while remaining on ice to prevent internalization (FIG. 16D). […] Summarizing, biparatopic 13F11-13E8 clearly internalizes in cells expressing hIGF2R on the cell surface.

[2] = test system: NIH 3T3 2.2 cells that were transiently transfected with hIGF2R; assay: Internalization by fluorescence microscopy after acid wash, hIGF2R-transfected NIH 3T3 2.2 cells; assay type: cell-based, human; settings: 25 nM Alexa fluor 647 conjugate
Procedure: as §2

[3] = test system: mock transfected NIH 3T3 2.2 cells; assay: Internalization by fluorescence microscopy after acid wash, mock transfected cells; assay type: cell-based; settings: 25 nM Alexa fluor 647 conjugate, negative control cells
Procedure: as §2

PDGFRB = target: T2, PDGFRB (Rattus norvegicus, UniProt Q05030); assay: Staining of rat tissue cryo-sections for PDGFRB; settings: 50 nM, overnight 4° C.
T2 construct: from tissue; host or cells: cryo-sections of rat tissues (liver, kidney, spleen, heart, ileum, brain) of BDL and SHAM rats
T2 sequence (Q05030 32-1097): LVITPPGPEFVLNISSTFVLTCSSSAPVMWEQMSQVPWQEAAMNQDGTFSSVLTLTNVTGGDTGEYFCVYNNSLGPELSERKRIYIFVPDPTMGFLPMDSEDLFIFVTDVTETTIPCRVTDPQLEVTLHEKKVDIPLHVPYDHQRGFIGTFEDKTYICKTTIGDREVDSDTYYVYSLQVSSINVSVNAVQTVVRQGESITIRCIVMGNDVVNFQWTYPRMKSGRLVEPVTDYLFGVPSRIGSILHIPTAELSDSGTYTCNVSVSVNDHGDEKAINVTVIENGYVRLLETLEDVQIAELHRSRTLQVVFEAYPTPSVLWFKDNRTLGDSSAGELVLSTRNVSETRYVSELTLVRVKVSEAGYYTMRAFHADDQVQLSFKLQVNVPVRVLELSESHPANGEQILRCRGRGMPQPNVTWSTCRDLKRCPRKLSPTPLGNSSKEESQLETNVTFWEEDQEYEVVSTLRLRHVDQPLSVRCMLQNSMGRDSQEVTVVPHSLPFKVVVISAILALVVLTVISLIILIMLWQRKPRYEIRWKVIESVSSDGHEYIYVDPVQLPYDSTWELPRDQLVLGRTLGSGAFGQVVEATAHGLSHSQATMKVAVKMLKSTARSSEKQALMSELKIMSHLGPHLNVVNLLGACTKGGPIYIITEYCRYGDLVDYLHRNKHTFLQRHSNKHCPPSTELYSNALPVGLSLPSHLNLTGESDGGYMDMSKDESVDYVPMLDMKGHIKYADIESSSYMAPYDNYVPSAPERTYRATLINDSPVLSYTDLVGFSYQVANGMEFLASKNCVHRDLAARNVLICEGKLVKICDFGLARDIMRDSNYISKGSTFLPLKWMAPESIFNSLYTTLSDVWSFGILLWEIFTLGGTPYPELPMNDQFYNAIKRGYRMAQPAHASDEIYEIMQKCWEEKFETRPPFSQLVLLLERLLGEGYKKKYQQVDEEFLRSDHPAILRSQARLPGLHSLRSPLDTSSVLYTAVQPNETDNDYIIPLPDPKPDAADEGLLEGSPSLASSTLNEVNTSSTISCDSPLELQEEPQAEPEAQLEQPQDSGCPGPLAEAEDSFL
Procedure: To evaluate whether SP02-SP26-ABD bound to PDGFRB as (over-) expressed in the cirrhotic liver, various cryo-sections of tissues (liver, kidney, spleen, heart, ileum, brain) obtained from both healthy (SHAM) and cirrhotic (BDL) rats (preparation procedure as outlined in example 15) were stained with SP02-SP26-ABD conjugated to Alexa Fluor 647 (SP02-SP26-ABD-A647, conjugation method as described in example 10.2.). Staining was performed with 50 nM SP02-SP26-ABD-AF647 during overnight incubation at 4° C. Subsequently, the sections were washed and stained with DAPI, mounted with mowiol mounting medium (Merck), and imaged on a Zeiss LSM700 laser scanning confocal microscope with a 20× objective. […] In the tissues other than the liver, no upregulation of PDGFRB was observed.

IGF2R [4] = target: T3, IGF2R (Rattus norvegicus, UniProt G3V824); assay: Staining of rat tissue cryo-sections for IGF2R; settings: 50 nM, overnight 4° C.
T3 construct: from tissue; host or cells: cryo-sections of rat tissues (liver, kidney, spleen, heart, ileum, brain); Sprague-Dawley BDL and SHAM rats
T3 sequence (G3V824 36-2481): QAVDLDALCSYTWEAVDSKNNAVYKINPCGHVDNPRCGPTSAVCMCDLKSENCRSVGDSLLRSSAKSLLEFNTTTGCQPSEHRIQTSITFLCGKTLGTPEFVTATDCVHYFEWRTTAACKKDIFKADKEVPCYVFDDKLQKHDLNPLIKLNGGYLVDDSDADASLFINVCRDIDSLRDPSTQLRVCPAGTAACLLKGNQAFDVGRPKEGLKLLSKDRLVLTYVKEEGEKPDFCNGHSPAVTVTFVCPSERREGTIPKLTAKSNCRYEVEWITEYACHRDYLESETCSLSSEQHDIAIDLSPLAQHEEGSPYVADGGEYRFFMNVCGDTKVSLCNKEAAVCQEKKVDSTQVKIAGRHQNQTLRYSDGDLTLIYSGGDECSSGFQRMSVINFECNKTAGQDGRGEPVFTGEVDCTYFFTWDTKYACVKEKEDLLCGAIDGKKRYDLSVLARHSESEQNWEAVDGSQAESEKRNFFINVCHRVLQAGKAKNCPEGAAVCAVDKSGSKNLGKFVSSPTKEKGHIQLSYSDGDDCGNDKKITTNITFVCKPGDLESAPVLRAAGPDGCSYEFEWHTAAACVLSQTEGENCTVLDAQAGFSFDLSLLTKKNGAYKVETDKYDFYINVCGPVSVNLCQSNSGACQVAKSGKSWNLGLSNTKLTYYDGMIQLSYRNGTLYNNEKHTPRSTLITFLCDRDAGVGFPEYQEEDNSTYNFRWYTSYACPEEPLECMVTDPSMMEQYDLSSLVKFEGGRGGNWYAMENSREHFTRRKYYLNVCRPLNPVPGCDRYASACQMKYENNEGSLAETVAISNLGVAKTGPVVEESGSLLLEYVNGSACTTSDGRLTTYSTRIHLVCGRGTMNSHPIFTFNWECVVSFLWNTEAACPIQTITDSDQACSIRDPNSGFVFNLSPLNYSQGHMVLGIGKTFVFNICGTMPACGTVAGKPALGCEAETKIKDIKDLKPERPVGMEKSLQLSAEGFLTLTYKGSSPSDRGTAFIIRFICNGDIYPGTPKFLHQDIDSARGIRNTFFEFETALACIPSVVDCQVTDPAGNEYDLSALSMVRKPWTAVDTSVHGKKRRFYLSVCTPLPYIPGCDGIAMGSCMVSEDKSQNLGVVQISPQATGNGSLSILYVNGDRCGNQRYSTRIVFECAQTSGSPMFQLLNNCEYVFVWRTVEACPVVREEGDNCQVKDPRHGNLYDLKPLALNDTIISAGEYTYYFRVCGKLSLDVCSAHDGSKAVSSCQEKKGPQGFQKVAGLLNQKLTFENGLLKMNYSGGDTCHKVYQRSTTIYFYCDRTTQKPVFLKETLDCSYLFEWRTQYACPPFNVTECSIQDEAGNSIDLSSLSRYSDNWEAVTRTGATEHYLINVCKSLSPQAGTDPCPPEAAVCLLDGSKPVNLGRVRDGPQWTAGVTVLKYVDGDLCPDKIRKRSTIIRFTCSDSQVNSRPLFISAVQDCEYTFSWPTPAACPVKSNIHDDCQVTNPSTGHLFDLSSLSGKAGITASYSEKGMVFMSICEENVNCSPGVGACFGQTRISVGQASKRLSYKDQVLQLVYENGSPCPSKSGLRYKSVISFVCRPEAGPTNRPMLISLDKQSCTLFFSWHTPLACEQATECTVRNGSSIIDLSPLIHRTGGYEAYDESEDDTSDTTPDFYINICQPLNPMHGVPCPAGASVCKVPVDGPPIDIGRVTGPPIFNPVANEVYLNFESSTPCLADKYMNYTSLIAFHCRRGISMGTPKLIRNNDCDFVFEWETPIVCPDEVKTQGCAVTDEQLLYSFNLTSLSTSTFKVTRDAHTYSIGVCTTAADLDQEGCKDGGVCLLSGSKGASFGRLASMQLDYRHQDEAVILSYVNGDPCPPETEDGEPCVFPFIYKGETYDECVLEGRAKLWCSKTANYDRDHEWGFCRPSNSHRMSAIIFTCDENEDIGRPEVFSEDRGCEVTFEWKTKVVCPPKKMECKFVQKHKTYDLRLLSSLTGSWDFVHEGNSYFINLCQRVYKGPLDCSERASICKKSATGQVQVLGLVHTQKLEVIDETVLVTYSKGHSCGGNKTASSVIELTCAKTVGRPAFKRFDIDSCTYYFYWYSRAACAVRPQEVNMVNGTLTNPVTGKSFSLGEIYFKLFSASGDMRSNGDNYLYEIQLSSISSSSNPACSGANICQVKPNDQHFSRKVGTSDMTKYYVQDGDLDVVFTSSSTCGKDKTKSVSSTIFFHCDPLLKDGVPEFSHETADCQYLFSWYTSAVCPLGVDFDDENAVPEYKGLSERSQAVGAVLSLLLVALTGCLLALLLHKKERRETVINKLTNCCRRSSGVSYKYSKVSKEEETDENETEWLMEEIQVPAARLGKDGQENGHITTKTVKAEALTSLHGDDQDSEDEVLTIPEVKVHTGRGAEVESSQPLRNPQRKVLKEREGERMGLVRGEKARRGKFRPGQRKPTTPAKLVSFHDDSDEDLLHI
Procedure: To evaluate whether F11E8-ABD bound to IGF2R as (over-) expressed in the cirrhotic liver, various cryo-sections of tissues (liver, kidney, spleen, heart, ileum, brain) obtained from both healthy (SHAM) and cirrhotic (BDL) rats (preparation procedure as outlined in example 15) were stained with 13F11-13E8-ABD conjugated to Alexa Fluor 647 (13F11-13E8-ABD-A647, conjugation method as described in example 10.2.). Staining was performed with 50 nM 13F11-13E8-ABD-AF647 during overnight incubation at 4° C. Subsequently, the sections were washed and stained with DAPI, mounted with mowiol mounting medium (Merck) and imaged on a Zeiss LSM700 laser scanning confocal microscope with a 20× objective. […] In the tissues other than the liver, no upregulation of IGF2R was observed.

[5] = test system: BDL rats (portal hypertension); assay: Portal pressure and mean arterial pressure in BDL and SHAM rats; assay type: in vivo, Sprague-Dawley rats; settings: 5 mg/kg i.v.
Description: To evaluate in vivo functionality, 13F11-13E8-ABD was conjugated to a Y27632-maleimide modified functional moiety (1e) (the test conjugate) as outlined in example 10.2. To provide a comparator, a similar amount of 13F11-13E8-ABD was conjugated to N-ethylmaleimide in a parallel and similar preparation (the mock conjugate).
To establish animals displaying portal hypertension (Klein et al, Fibrosis: Methods and Protocols. Methods in Molecular Biology. 2017 (1627): 91-122.), Sprague-Dawley rats were subjected to bile duct ligation (BDL) through median laparotomy under ketamine/xylazine-induced anaesthesia i.p. (BDL rats). To provide healthy controls, a second cohort of rats was subjected to the same surgical procedure except for actual ligation of the bile duct (SHAM rats). Surgery was followed-up with pain control medication (carprofen s.c.). Approximately five weeks after surgery, ketamine/xylazine anesthetized rats were subjected to median laparotomy, after which one catheter was inserted through an ileocecal vein to the portal vein, and one catheter was inserted into the femoral artery. The catheters were connected to pressure recording equipment, for assessment of portal pressure and mean arterial pressure, respectively.
(§3) After catheterization and hemodynamic stabilization, rats were dosed with 5 mg/kg test conjugate or mock conjugate i.v. through the lateral tail vein and pressures were monitored continuously (example 15.1.). One hour after dosing, animals were sacrificed after which tissues were isolated for ex vivo analysis (example 15.2.).

IGF2R [6] = target: T3, IGF2R; assay: In situ detection of infused test conjugate in liver sections; assay type: in vivo; settings: for detection of conjugate in liver: one hour after 5 mg/kg i.v., anti-VHH antiserum
Procedure: as §3
After isolation, livers obtained from test conjugate-infused BDL and SHAM rats were fixated with paraformaldehyde, soaked in 30% (w/v) sucrose in PBS, and sectioned using cryo-microtome.
To detect the test conjugate in situ, tissue sections were stained with a rabbit polyclonal anti-VHH antiserum recognizing the 13F11-13E8 moiety of the conjugate, followed by an anti-rabbit antibody conjugated to the fluorophore Alexa-488 for visualization by confocal fluorescence microscopy (cf. example 14).

hPDGFRB = hPDGFRB (Homo sapiens, UniProt P09619); assay: Competition assays of PDGFRB VHHs on hPDGFRB; assay type: binding; settings: IRDye800-conjugated SP26P as reporter
Chain of hPDGFRB (P09619 33-532 limits assumed): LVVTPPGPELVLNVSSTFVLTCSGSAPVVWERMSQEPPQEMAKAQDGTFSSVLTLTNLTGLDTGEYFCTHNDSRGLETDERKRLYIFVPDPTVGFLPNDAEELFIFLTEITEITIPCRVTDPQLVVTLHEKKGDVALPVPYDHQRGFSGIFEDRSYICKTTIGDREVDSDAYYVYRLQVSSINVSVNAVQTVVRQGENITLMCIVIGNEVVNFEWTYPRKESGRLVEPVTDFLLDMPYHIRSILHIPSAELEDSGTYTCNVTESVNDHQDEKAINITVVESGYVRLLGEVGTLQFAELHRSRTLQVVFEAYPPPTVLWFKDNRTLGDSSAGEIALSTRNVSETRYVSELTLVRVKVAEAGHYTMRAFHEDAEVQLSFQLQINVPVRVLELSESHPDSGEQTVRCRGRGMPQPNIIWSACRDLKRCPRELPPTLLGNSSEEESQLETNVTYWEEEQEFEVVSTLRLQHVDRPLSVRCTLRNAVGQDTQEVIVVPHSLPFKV
Procedure: as §1
(§4) Similar as to in example 6.1, competition assays were performed to identify unique hPDGFRB- or rPDGFRB binders. Across 10 PDGFRB-binding VHHs obtained from libraries 1 and 2 (e.g. the VHH raised against hPDGFRB), four main groups were identified being first SP01P, SP02P, SP07P and SP13P, second SP05P, SP08P and SP10P, third SP12P and SP20P and finally SP14P. All VHH within each of the first three groups mutually competed.
To evaluate whether the obtained VHHs would qualify as building blocks for multivalent VHH constructs that bind hPDGFRB as well as rPDGFRB (e.g. ‘species cross-reactive’ VHH constructs), competition assays were performed using the most promising VHHs SP02 (raised against hPDGFRB) and SP26P (raised against rPDGFRB).

rPDGFRB = rPDGFRB (Rattus norvegicus, UniProt Q05030); assay: Competition assays of PDGFRB VHHs on rPDGFRB; assay type: binding; settings: VHHs from libraries 3 and 4
Chain of rPDGFRB (Q05030 32-1097): as the sequence (Q05030 32-1097) above
Procedure: as §1, §4

[7] = BDL rats, monitored for one hour

B1: 13F11: VHH single domain antibody targeting IGF2R, SEQ ID NO: 273 (protein)
VHH: EVQLVESGGRLVQPGDSLRLSCAASGRTFSDNAMGWFRQAPGKERRFVAGISWAGGSTYYSDSVKGRFTISRDNAKNTVYLQMNSLKPEDTAVYYCAAGLRAWVQRMPKDYNYWGQGTQVTVSS
competition with reporter VHH 13F11-A647 (hIGF2R-ECD): competed with 13F11-A647
internalization [1]: no internalization was observed
internalization [2]: internalized
internalization [3]: no internalization was observed

B2: SP02-SP26-ABD-AF647: SP02-SP26-ABD conjugated to Alexa Fluor 647 (conjugate)
chain: EVQLVESGGGLVQAGGSLRLSCAASESISSIEQMGWFRQAPGKQRALVAINTYGGRTVYTNSVEGRFTMSRDSAKNMVYLQMTSLEPEDTAVYYCYAQTTAWRGGVWGQGTQVTVSSGGGGSGGGGSGGGGSEVQLVESGGGLVQAGGSLRLSCAASGRSFSSSVMGWFRQTPGKEREFVAATRWTAASTHYADSVKGRFTISRDHAENAVFLQMNSLKPEDTAVYYCAAGNYLDTAQYRYNYWGQGTQVTVSS
modifications: left off: large carriers; small tags and cut ends
staining of cirrhotic (BDL) rat liver (PDGFRB): strongly stains activated fibroblasts
staining of normal (SHAM) rat liver (PDGFRB): only background signal was detected

B3: 13F11-13E8-ABD-AF647: 13F11-13E8-ABD conjugated to Alexa Fluor 647 (conjugate)
chain: EVQLVESGGRLVQPGDSLRLSCAASGRTFSDNAMGWFRQAPGKERRFVAGISWAGGSTYYSDSVKGRFTISRDNAKNTVYLQMNSLKPEDTAVYYCAAGLRAWVQRMPKDYNYWGQGTQVTVSSGGGGSGGGGSGGGGSEVQLVESGGGLVQAGGSLRLSCAASRSISPMGWYRQAPGKQRELVAIMPSSGPPIYADSVQGRFTISRDNAKNTVYLQMNSLKPEDTAVYYCNVGGGYWGQGTQVTVSS
modifications: left off: large carriers; small tags and cut ends
staining of cirrhotic (BDL) rat liver (IGF2R [4]): strongly stains activated fibroblasts
staining of normal (SHAM) rat liver (IGF2R [4]): only background signal was detected

B4: test conjugate: 13F11-13E8-ABD conjugated to a Y27632-maleimide modified functional moiety (1e) (conjugate)
chain: EVQLVESGGRLVQPGDSLRLSCAASGRTFSDNAMGWFRQAPGKERRFVAGISWAGGSTYYSDSVKGRFTISRDNAKNTVYLQMNSLKPEDTAVYYCAAGLRAWVQRMPKDYNYWGQGTQVTVSSGGGGSGGGGSGGGGSEVQLVESGGGLVQAGGSLRLSCAASRSISPMGWYRQAPGKQRELVAIMPSSGPPIYADSVQGRFTISRDNAKNTVYLQMNSLKPEDTAVYYCNVGGGYWGQGTQVTVSS
modifications: non-natural residues; left off: large carriers; small tags and cut ends
mean arterial pressure (MAP) [5, 7]: remained constant
portal pressure (PP) [5, 7]: gradual decrease of portal pressure
portal or arterial pressure ([5]; SHAM rats): neither the test conjugate nor the mock conjugate affected portal or arterial pressure
detection of conjugate in liver (IGF2R [6]; BDL rats): detected in the liver of BDL rats
distribution in liver versus (tissue) distribution of IGF2R (IGF2R [6]; BDL rats, second staining with 13F11-13E8-A647): overlapped
detection of conjugate in liver (IGF2R [6]; SHAM rats): not in the liver of SHAM rats

B5: SP26P: VHH single domain antibody targeting PDGFRB, SEQ ID NO: 153 (protein)
VHH: EVQLVESGGGLVQAGGSLRLSCAASGRSFSSSVMGWFRQTPGKEREFVAATRWTAASTHYADSVKGRFTISRDHAENAVFLQMNSLKPEDTAVYYCAAGNYLDTAQYRYNYWGQGTQVTVSS
competition between SP02 and SP26P (hPDGFRB): did not compete
epitope compared to SP27P, SP28P, SP30P, SP31P and SP36P (rPDGFRB): unique epitope
